# According to publication PMC3762362:
# Target: Endogenous bovine Arp2/3 complex, A7MB62;P61157
# Assay: fluorescence anisotropy competition assay
# Conditions: chain shown with the change; reporter 20 nM VVCA-A462C-AF594; mixture incubated for 10 min prior to measurement; parent: est. 6.0 nM; read off a plot
binder,measurement,value
"GST-VCA (GST fusion of N-WASP residues 432–505), O00401 I467A (protein) SGRDALLDQIRQGIQLKSVADGQESTPPTPAPTSGAVGALMEVMQKRSKAIHSSDEDEDEDDEEDFEDDDEWED",Kd,20 nM
